This note sets out measurements from PMC4930479 (Angiogenesis, 2016).

The data set concerns the molecule itself. Briefly: SEC-MALS; inhibitor and ligand mixed at molar ratios 5:1 to 1:5 (20 µM and 100 µM), 12 h at ambient temperature; free proteins injected separately; Superose 12 10/300 GL, 10 mM phosphate, 500 mM NaCl, pH 7.0, 0.3 mL/min. A general note: SEC sorts molecules by how far they enter the pores of the column.

B1: PlGF-2 (ligand, UniProt P49763-3 19-170, looked up)
chain: LPAVPPQQWALSAGNGSSEVEVVPFQEVWGRSYCRALERLVDVVSEYPSEVEHMFSPSCVSLLRCTGCCGDENLHCVPVETANVTMQLLKIRSGDRPSYVELTFSQHVRCECRPLREKMKPERRRPKGRGKRRREKQRPTDCHLCGDAVPRR
notes: PlGF-2, isoform of placental growth factor; Dimer (~42 kDa by SEC-MALLS); also called placental growth factor
In the case of B1, the stoichiometry N (as a rule, a count of units in the complex or per binding partner) came out at 2.
